Source: publication PMC4132270, “Compartmentalized self-replication under fast PCR cycling conditions yields Taq DNA polymerase mutants with increased DNA-binding affinity and blood resistance”

Experiments:
[1] = biological target: Taq E507K (Thermus aquaticus, UniProt P19821 1-832, E507K); test: EMSA; 95 mM KCl; 0.25 nM hairpin, 0.5-1000 nM enzyme, 1x Taq buffer (50 mM KCl for wild type, 95 mM KCl for mutants; full composition and pH not stated for this assay), 37 C, 30; conditions: protein: recombinant, label: 5' 33P, recessed 3' end, 5' overhang
[2] = biological target: Taq DNA polymerase (wild type) (Thermus aquaticus, UniProt P19821 1-832); test: EMSA; 50 mM KCl (enzyme's KCl optimum); 0.25 nM hairpin, 0.5-1000 nM enzyme, 1x Taq buffer (50 mM KCl for wild type, 95 mM KCl for mutants; full composition and pH not stated for this assay), 37 C, 30; conditions: protein: recombinant, tags: none (His tag removed, pET11), label: 5' 33P, recessed 3' end, 5' overhang
[3] = biological target: Taq G59W (Thermus aquaticus, UniProt P19821 1-832, G59W); test: EMSA; 95 mM KCl (Methods: all assays with Taq mutants); text gives 91 nM; 0.25 nM hairpin, 0.5-1000 nM enzyme, 1x Taq buffer (50 mM KCl for wild type, 95 mM KCl for mutants; full composition and pH not stated for this assay), 37 C, 30; conditions: protein: recombinant, label: 5' 33P, recessed 3' end, 5' overhang

B1: hairpin primer-template (structured_DNA)
DNA: CTCCAGACACGACGCAGTTGCCCGATGGTCGACGTTCGCGAAAGCGAACGTCGACCATCGGGCAACT
modifications: 3' end blocked with dideoxy TMP (3' ddT; unclear whether the printed 3' T is the ddT or it is added)
- Kd [1]: 1.1 nM
- Kd [2]: 102 nM
- Kd [3]: 91.6 nM
